From PMC7747717 (Nature Communications, 2020) come the findings set out here.

Holding throughout (test): cryo-EM structure; endogenous human Pol III purified from HeLa POLR1C-GFP cells, not cross-linked, apo, 4.0 Å
Common to all, as to details: both partners purified

Test [1] concerns the target T1, RPC5, subunit of purified human Pol III (human (endogenous in HeLa), UniProt Q9NVU0 1-708).
T1 construct: RPC5, subunit of the TFIIF-like RPC4/5 heterodimer of RNA polymerase III, human, endogenous; the C-terminal extension (RPC5EXT) was not visible in the EM map; also called POLR3E; source: endogenous, HeLa, purified within Pol III
T1 sequence (looked up): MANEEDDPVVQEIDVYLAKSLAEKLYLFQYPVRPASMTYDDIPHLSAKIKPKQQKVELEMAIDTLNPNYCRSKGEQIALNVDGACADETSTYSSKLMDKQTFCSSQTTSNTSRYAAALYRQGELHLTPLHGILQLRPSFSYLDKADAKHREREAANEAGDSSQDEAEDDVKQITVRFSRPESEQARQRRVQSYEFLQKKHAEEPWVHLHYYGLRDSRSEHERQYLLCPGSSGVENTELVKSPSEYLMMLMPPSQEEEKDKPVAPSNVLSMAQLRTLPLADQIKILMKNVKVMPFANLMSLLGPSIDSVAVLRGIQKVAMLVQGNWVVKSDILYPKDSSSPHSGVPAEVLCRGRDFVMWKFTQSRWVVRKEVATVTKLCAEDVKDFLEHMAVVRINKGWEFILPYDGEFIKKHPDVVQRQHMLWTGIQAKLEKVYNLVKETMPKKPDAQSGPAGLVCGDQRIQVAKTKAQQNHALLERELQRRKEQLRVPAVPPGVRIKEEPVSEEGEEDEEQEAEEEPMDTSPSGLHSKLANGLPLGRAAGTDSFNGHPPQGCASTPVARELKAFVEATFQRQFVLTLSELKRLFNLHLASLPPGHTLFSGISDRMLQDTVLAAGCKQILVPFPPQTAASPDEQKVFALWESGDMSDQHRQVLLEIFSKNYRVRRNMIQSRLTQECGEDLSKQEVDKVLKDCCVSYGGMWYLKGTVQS

For test [2], the target named is RPABC1, subunit of purified human Pol III (human (endogenous in HeLa), UniProt P19388 1-210).
The target of test [3] is T2, RPC8, stalk subunit of purified human Pol III (human (endogenous in HeLa), UniProt Q9Y535 1-204).
T2 construct: RPC8, stalk subunit of RNA polymerase III, human, endogenous; source: endogenous, HeLa, purified within Pol III
T2 sequence (looked up): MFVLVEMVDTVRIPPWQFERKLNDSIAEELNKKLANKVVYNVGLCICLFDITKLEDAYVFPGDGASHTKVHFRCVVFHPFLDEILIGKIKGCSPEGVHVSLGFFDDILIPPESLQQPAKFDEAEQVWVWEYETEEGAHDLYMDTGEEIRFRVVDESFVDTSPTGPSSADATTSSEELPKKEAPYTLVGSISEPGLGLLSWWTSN

B1: RPC4, subunit of purified human Pol III (natural protein, human (endogenous in HeLa), UniProt P05423 1-398, looked up)
chain: MSEGNAAGEPSTPGGPRPLLTGARGLIGRRPAPPLTPGRLPSIRSRDLTLGGVKKKTFTPNIISRKIKEEPKEEVTVKKEKRERDRDRQREGHGRGRGRPEVIQSHSIFEQGPAEMMKKKGNWDKTVDVSDMGPSHIINIKKEKRETDEETKQILRMLEKDDFLDDPGLRNDTRNMPVQLPLAHSGWLFKEENDEPDVKPWLAGPKEEDMEVDIPAVKVKEEPRDEEEEAKMKAPPKAARKTPGLPKDVSVAELLRELSLTKEEELLFLQLPDTLPGQPPTQDIKPIKTEVQGEDGQVVLIKQEKDREAKLAENACTLADLTEGQVGKLLIRKSGRVQLLLGKVTLDVTMGTACSFLQELVSVGLGDSRTGEMTVLGHVKHKLVCSPDFESLLDHKHR
notes: RPC4, subunit of the TFIIF-like RPC4/5 heterodimer of RNA polymerase III, human, endogenous; also called POLR3D; source: endogenous, HeLa, purified within Pol III
Regarding B1, the binding result in test [1] is on record as “binds”.

B2: RPC1, largest subunit of purified human Pol III (natural protein)
chain: MVKEQFRETDVAKKISHICFGMKSPEEMRQQAHIQVVSKNLYSQDNQHAPLLYGVLDHRMGTSEKDRPCETCGKNLADCLGHYGYIDLELPCFHVGYFRAVIGILQMICKTCCHIMLSQEEKKQFLDYLKRPGLTYLQKRGLKKKISDKCRKKNICHHCGAFNGTVKKCGLLKIIHEKYKTNKKVVDPIVSNFLQSFETAIEHNKEVEPLLGRAQENLNPLVVLNLFKRIPAEDVPLLLMNPEAGKPSDLILTRLLVPPLCIRPSVVSDLKSGTNEDDLTMKLTEIIFLNDVIKKHRISGAKTQMIMEDWDFLQLQCALYINSELSGIPLNMAPKKWTRGFVQRLKGKQGRFRGNLSGKRVDFSGRTVISPDPNLRIDEVAVPVHVAKILTFPEKVNKANINFLRKLVQNGPEVHPGANFIQQRHTQMKRFLKYGNREKMAQELKYGDIVERHLIDGDVVLFNRQPSLHKLSIMAHLARVKPHRTFRFNECVCTPYNADFDGDEMNLHLPQTEEAKAEALVLMGTKANLVTPRNGEPLIAAIQDFLTGAYLLTLKDTFFDRAKACQIIASILVGKDEKIKVRLPPPTILKPVTLWTGKQIFSVILRPSDDNPVRANLRTKGKQYCGKGEDLCANDSYVTIQNSELMSGSMDKGTLGSGSKNNIFYILLRDWGQNEAADAMSRLARLAPVYLSNRGFSIGIGDVTPGQGLLKAKYELLNAGYKKCDEYIEALNTGKLQQQPGCTAEETLEALILKELSVIRDHAGSACLRELDKSNSPLTMALCGSKGSFINISQMIACVGQQAISGSRVPDGFENRSLPHFEKHSKLPAAKGFVANSFYSGLTPTEFFFHTMAGREGLVDTAVKTAETGYMQRRLVKSLEDLCSQYDLTVRSSTGDIIQFIYGGDGLDPAAMEGKDEPLEFKRVLDNIKAVFPCPSEPALSKNELILTTESIMKKSEFLCCQDSFLQEIKKFIKGVSEKIKKTRDKYGINDNGTTEPRVLYQLDRITPTQVEKFLETCRDKYMRAQMEPGSAVGALCAQSIGEPGTQMTLKTFHFAGVASMNITLGVPRIKEIINASKAISTPIITAQLDKDDDADYARLVKGRIEKTLLGEISEYIEEVFLPDDCFILVKLSLERIRLLRLEVNAETVRYSICTSKLRVKPGDVAVHGEAVVCVTPRENSKSSMYYVLQFLKEDLPKVVVQGIPEVSRAVIHIDEQSGKEKYKLLVEGDNLRAVMATHGVKGTRTTSNNTYEVEKTLGIEAARTTIINEIQYTMVNHGMSIDRRHVMLLSDLMTYKGEVLGITRFGLAKMKESVLMLASFEKTADHLFDAAYFGQKDSVCGVSECIIMGIPMNIGTGLFKLLHKADRDPNPPKRPLIFDTNEFHIPLVT
notes: RPC1, largest subunit of RNA polymerase III, human, endogenous; also called POLR3A; source: endogenous, HeLa, purified within Pol III
Take B2: the binding result in test [2] is given as “binds”.

B3: RPC9, stalk subunit of purified human Pol III (natural protein)
chain: not shown
notes: RPC9, stalk subunit of RNA polymerase III, human, endogenous; source: endogenous, HeLa, purified within Pol III
As for B3, the binding result in test [3] is recorded as “binds”.
